# B1: HypD (natural protein, E. coli, UniProt P24192 1-373, looked up)
# chain: MRFVDEYRAPEQVMQLIEHLRERASHLSYTAERPLRIMEVCGGHTHAIFKFGLDQLLPENVEFIHGPGCPVCVLPMGRIDTCVEIASHPEVIFCTFGDAMRVPGKQGSLLQAKARGADVRIVYSPMDALKLAQENPTRKVVFFGLGFETTMPTTAITLQQAKARDVQNFYFFCQHITLIPTLRSLLEQPDNGIDAFLAPGHVSMVIGTDAYNFIASDFHRPLVVAGFEPLDLLQGVVMLVQQKIAAHSKVENQYRRVVPDAGNLLAQQAIADVFCVNGDSEWRGLGVIESSGVHLTPDYQRFDAEAHFRPAPQQVCDDPRARCGEVLTGKCKPHQCPLFGNTCNPQTAFGALMVSSEGACAAWYQYRQQESEA
# notes: HypD, iron-sulfur cluster-containing hydrogenase maturation protein of Escherichia coli; untagged; Carries a 4Fe-4S cluster; Untagged unless stated otherwise; also called HypD scaffold protein
# B2: N-terminally His-tagged pre-HybC (natural protein, E. coli, UniProt P0ACE0 1-567, looked up)
# chain: MSQRITIDPVTRIEGHLRIDCEIENGVVSKAWASGTMWRGMEEIVKNRDPRDAWMIVQRICGVCTTTHALSSVRAAESALNIDVPVNAQYIRNIILAAHTTHDHIVHFYQLSALDWVDITSALQADPTKASEMLKGVSTWHLNSPEEFTKVQNKIKDLVASGQLGIFANGYWGHPAMKLPPEVNLIAVAHYLQALECQRDANRVVALLGGKTPHIQNLAVGGVANPINLDGLGVLNLERLMYIKSFIDKLSDFVEQVYKVDTAVIAAFYPEWLTRGKGAVNYLSVPEFPTDSKNGSFLFPGGYIENADLSSYRPITSHSDEYLIKGIQESAKHSWYKDEAPQAPWEGTTIPAYDGWSDDGKYSWVKSPTFYGKTVEVGPLANMLVKLAAGRESTQNKLNEIVAIYQKLTGNTLEVAQLHSTLGRIIGRTVHCCELQDILQNQYSALITNIGKGDHTTFVKPNIPATGEFKGVGFLEAPRGMLSHWMVIKDGIISNYQAVVPSTWNSGPRNFNDDVGPYEQSLVGTPVADPNKPLEVVRTIHSFDPCMACAVHVVDADGNEVVSVKVL
# notes: HybC, large (catalytic) subunit of hydrogenase 2 of Escherichia coli, as the immature precursor that still has the C-terminal peptide removed on maturation; also called apo-form of the hydrogenase 2 catalytic subunit; hydrogenase 2 large-subunit precursor; source: E. coli (plasmid pCAN-hybC_(stop)), purified on cobalt-charged TALON Superflow agarose; not shown: His tag, N-terminal, kept
# B3: StrepII-tagged HybG (natural protein, E. coli, UniProt P0AAM7 1-82, looked up)
# chain: MCIGVPGQVLAVGEDIHQLAQVEVCGIKRDVNIALICEGNPADLLGQWVLVHVGFAMSIIDEDEAKATLDALRQMDYDITSA
# modifications: populations with a +26 Da modification on the N-terminal cysteinyl residue, a further +44 Da (CO2) modification, or the Fe(CN)2CO group (+136 Da; only on HybG dissociated from the native HybG-HypD complex)
# notes: HybG, HypC-family hydrogenase maturation chaperone of Escherichia coli; the N-terminal residue of the protein is the cysteine that is formally amino acid position 2; Deconvoluted mass of the unmodified tagged protein is printed as 9615 Da; also called StrepII-HybG; native HybG; not shown: StrepII, C-terminal, kept
# How the values were obtained:
# StrepII-tagged HybG [1] = molecular target: B3; test: native MS; isolated StrepII-HybG–HypD complex; 500 mM ammonium acetate pH 6.8, about 10 uM protein, nano-ESI Q-TOF, collision energy 40 V; CID-MS/MS of the 13+ ion at 80 V; conditions: both partners purified
# [2] = molecular target: the molecule itself; test: native MS; purified N-terminally His-tagged pre-HybC supplemented with equimolar amounts of StrepII-HybG; 500 mM ammonium acetate pH 6.8; CID-MS/MS of the 16+ complex ion
# StrepII-tagged HybG [3] = molecular target: B3; test: as above; conditions: both partners purified
Binder,stoichiometry N (StrepII-tagged HybG [1]),stoichiometry N [2],stoichiometry N (StrepII-tagged HybG [3])
B1,1 HybG:HypD,–,–
B2,–,2,1 HybG:pre-HybC
B3,–,2,–
